The values below come from PMC11787515, “Resilience and charge-dependent fibrillation of functional amyloid: Interactions of Pseudomonas biofilm-associated FapB and FapC amyloids” (The Journal of Biological Chemistry, 2024).

Sequences and labels used below:
B2: FapB from the P. aeruginosa PAO1 strain with an N-terminal histidine tag (natural protein)
chain: DPLASRNRASIDDSGTYRGNFALNQAAGDAQQQSNVRVVAVGSAALVGSDQRQHLQLDASQPIAASASISGAALRGSGILGVNQGAGLGNQQINAFRLSLSNGPESLDDSVLAQSVALTKVSGSATPVPGGRSVSTDDRAFAGSSGVVQVNQSAGVGNQSMNTLSVRVME
notes: FapB, Pseudomonas aeruginosa PAO1, UniProt Q9I2E9; Used as fresh monomers, as fibrils and as sonicated fibril seeds; also called FapB-NterHis; histidine-tagged FapB; source: E. coli BL-21, purified (HisPur cobalt resin, lysis in 6 M guanidinium HCl)
B5: FapC (C-terminal histidine tag) labeled with Cyanine5 (natural protein)
chain: MGNEGGWHPPKPNPQSNNKGGATALVVDTQQNYNNKVSNFGTLNNASVSGSIKDASGNVGVNVAAGDNNQQANAAALASADASFVFGTATASTSVLQSGYGNTLNNYSNPNTASLSNSANNVSGNLGVNVAAGNFNQQKNDLAAAVSNGQYSTAGSAASQTSTGNTTVNSANYAYGGTYVSLKLNADGSYKGTSDQIGDVYLDTWEGQTHPGGSNTGHIDVDSQAQGAKDLNHDGGAFAFKEKGDVDLKGTVSGFIPAIVGFKTPVTNNASLSNSLQNVSGNVGVNIAAGGGNQQSNSLSIAAGCSSCPAGGESLGF
modifications: Cyanine5 attached by NHS ester to lysine residues (primary amines)
notes: FapC, Pseudomonas aeruginosa PAO1, UniProt Q9I2F0, without its signal peptide; same chain as m2; also called FapC labeled with Cyanine5; labeled FapC; source: E. coli BL-21, labeled on HisPur cobalt resin with Cyanine5 NHS ester, eluted and desalted

Data set [1] concerns the molecule itself. In words: thioflavin T fibrillation kinetics + transmission electron microscopy; each protein alone, 25, 50 or 100 uM, universal buffer (Tris, Bis-Tris, sodium acetate) pH 4-9, 20 uM ThT, 37 °C, orbital shaking 300 rpm; fibrils seen by TEM after 80 h; self-assembly into amyloid fibrils.
Data set [2] deals with the molecule itself. In words: transmission electron microscopy of fibrils; fluorophore-labeled FapB and FapC, negative staining with 1% uranyl acetate.
Data set [3] addresses B5. In words: fluorescence microscopy of labeled purified proteins (colocalisation of monomers with preformed fibrils); Cyanine3-FapB and Cyanine5-FapC; monomers (0 h incubation) mixed with preformed fibrils (72 h incubation) of the other protein; imaged immediately after mixing and after 24 h; Leica DMI8, 20x. The conditions noted are these: both partners purified.
Data set [4] deals with B2. In words: cell-based or functional assay.
Data set [5] deals with the molecule itself. In words: fibril formation, pelleting and formic acid dissolution with SDS-PAGE; 30 uM protein, 37 °C, 48 h, incubated individually; fibrils washed by centrifugation at 13,000g, sonicated and treated with formic acid.

B1: FapC from the P. aeruginosa PAO1 strain with an N-terminal histidine tag (natural protein)
chain: GNEGGWHPPKPNPQSNNKGGATALVVDTQQNYNNKVSNFGTLNNASVSGSIKDASGNVGVNVAAGDNNQQANAAALASADASFVFGTATASTSVLQSGYGNTLNNYSNPNTASLSNSANNVSGNLGVNVAAGNFNQQKNDLAAAVSNGQYSTAGSAASQTSTGNTTVNSANYAYGGTYVSLKLNADGSYKGTSDQIGDVYLDTWEGQTHPGGSNTGHIDVDSQAQGAKDLNHDGGAFAFKEKGDVDLKGTVSGFIPAIVGFKTPVTNNASLSNSLQNVSGNVGVNIAAGGGNQQSNSLSIAAGCSSCPAGGESLGF
notes: FapC, Pseudomonas aeruginosa PAO1, UniProt Q9I2F0; cloned into pET28b with the histidine tag at the N-terminal site; This construct probably holds the same stretch without the signal peptide; also called FapC with histidine tag at the N-terminus; source: E. coli BL-21, purified (HisPur cobalt resin, lysis in 6 M guanidinium HCl); not shown: His tag, N-terminal, kept
With B1, the binding result in data set [1] is “binds”. On the same count and under the same terms, in the case of B2 it was “binds”.

B3: FapB (N-terminal histidine tag) labeled with Cyanine3 (natural protein)
chain: DPLASRNRASIDDSGTYRGNFALNQAAGDAQQQSNVRVVAVGSAALVGSDQRQHLQLDASQPIAASASISGAALRGSGILGVNQGAGLGNQQINAFRLSLSNGPESLDDSVLAQSVALTKVSGSATPVPGGRSVSTDDRAFAGSSGVVQVNQSAGVGNQSMNTLSVRVME
modifications: Cyanine3 attached by NHS ester to lysine residues (primary amines)
notes: FapB, Pseudomonas aeruginosa PAO1, UniProt Q9I2E9, 170 residues without the signal peptide; same chain as m1; also called FapB labeled with Cyanine3; labeled FapB; source: E. coli BL-21, labeled on HisPur cobalt resin with Cyanine3 NHS ester, eluted and desalted
In the case of B3, the binding result in data set [2] and in data set [3] was “binds” each time.

B4: FapC from the P. aeruginosa PAO1 strain with a C-terminal histidine tag (natural protein)
chain: MGNEGGWHPPKPNPQSNNKGGATALVVDTQQNYNNKVSNFGTLNNASVSGSIKDASGNVGVNVAAGDNNQQANAAALASADASFVFGTATASTSVLQSGYGNTLNNYSNPNTASLSNSANNVSGNLGVNVAAGNFNQQKNDLAAAVSNGQYSTAGSAASQTSTGNTTVNSANYAYGGTYVSLKLNADGSYKGTSDQIGDVYLDTWEGQTHPGGSNTGHIDVDSQAQGAKDLNHDGGAFAFKEKGDVDLKGTVSGFIPAIVGFKTPVTNNASLSNSLQNVSGNVGVNIAAGGGNQQSNSLSIAAGCSSCPAGGESLGF
notes: Used as fresh monomers, as fibrils and as sonicated fibril seeds; also called FapC-CterHis; histidine-tagged FapC; source: E. coli BL-21, purified (HisPur cobalt resin, lysis in 6 M guanidinium HCl)
Turning to B4, the “residual FapB monomer on SDS-PAGE after 9 days of coincubation 1:1 with FapC at pH 5, without formic acid, relative to untreated monomers (9% for FapB alone)” value in data set [4] was 52%. Moreover, the binding result in data set [1] is “binds”.

Turning to B5, the binding result in data set [2] is “binds”.

B6: histidine-tagged CsgB of E. coli (natural protein, E. coli K12, UniProt P0ABK7 22-151, looked up)
chain: AGYDLANSEYNFAVNELSKSSFNQAAIIGQAGTNNSAQLRQGGSKLLAVVAQEGSSNRAKIDQTGDYNLAYIDQAGSANDASISQGAYGNTAMIIQKGSGNKANITQYGTQKTAIVVQRQSQMAIRVTQR
notes: CsgB (curli minor subunit), E. coli K12, UniProt P0ABK7; Expressed from a pET11a plasmid; the construct is not described further; source: E. coli BL21-DE3 slyD KO, purified (nickel-nitrilotriacetic acid beads, from 7.5 M guanidine hydrochloride)
Regarding B6, the binding result in data set [5] is “binds”.
